B1: RapF [B. subtilis] / PhrF [B. subtilis] (parent)
chain 1: MTGVISSSSIGEKINEWYMYIRRFSIPDAEYLRREIKQELDQMEEDQDLHLYYSLMEFRHNLMLEYLEPLEKMRIEEQPRLSDLLLEIDKKQARLTGLLEYYFNFFRGMYELDQREYLSAIKFFKKAESKLIFVKDRIEKAEFFFKMSESYYYMKQTYFSMDYARQAYEIYKEHEAYNIRLLQCHSLFATNFLDLKQYEDAISHFQKAYSMAEAEKQPQLMGRTLYNIGLCKNSQSQYEDAIPYFKRAIAVFEESNILPSLPQAYFLITQIHYKLGKIDKAHEYHSKGMAYSQKAGDVIYLSEFEFLKSLYLSGPDEEAIQGFFDFLESKMLYADLEDFAIDVAKYYHERKNFQKASAYFLKVEQVRQLIQGGVSLYEIEV
chain 2: QRGMI
B2: RapF [B. subtilis] / PhrC [B. subtilis] (parent)
chain 1: B1 chain 1
chain 2: ERGMT

Variants of: B1
Experiment: thermal-shift assay (Sypro orange fluorescence)
Conditions: with PhrF [B. subtilis], printed Tm without peptide: mutant 50.1 °C, wild type 49.5 °C

| Variant | screen value [°C] |
| --- | --- |
| chain 1 MTGVISSSSIGEKINEWYMYIRRFSIPDAEYLRREIKQELDQMEEDQDLHLYYSLMEFRHNLMLEYLEPLEKMRIEEQPRLSDLLLEIDKKQARLTGLLEYYFNFFRGMYELDQREYLSAIKFFKKAESKLIFVKDRIEKAEFFFKMSESYYYMKQTYFSMDYARQAYEIYKEHEAYNIRLLQCHSLFATNFLDLKQYEDAISHFQKAYSMAEAEKQPQLMGRTLYAIGLCKNSQSQYEDAIPYFKRAIAVFEESNILPSLPQAYFLITQIHYKLGKIDKAHEYHSKGMAYSQKAGDVIYLSEFEFLKSLYLSGPDEEAIQGFFDFLESKMLYADLEDFAIDVAKYYHERKNFQKASAYFLKVEQVRQLIQGGVSLYEIEV [chain 1 N227A] | 49.2 |

Same assay, conditions: with PhrF [B. subtilis], printed Tm without peptide: mutant 53.4 °C, wild type 49.5 °C

| Variant | screen value [°C] |
| --- | --- |
| chain 1 MTGVISSSSIGEKINEWYMYIRRFSIPDAEYLRREIKQELDQMEEDQDLHLYYSLMEFRHNLMLEYLEPLEKMRIEEQPRLSDLLLEIDKKQARLTGLLEYYFNFFRGMYELDQREYLSAIKFFKKAESKLIFVKDRIEKAEFFFKMSESYYYMKQTYFSMDYARQAYEIYKEHEAYNIRLLQCHSLFATNFLALKQYEDAISHFQKAYSMAEAEKQPQLMGRTLYNIGLCKNSQSQYEDAIPYFKRAIAVFEESNILPSLPQAYFLITQIHYKLGKIDKAHEYHSKGMAYSQKAGDVIYLSEFEFLKSLYLSGPDEEAIQGFFDFLESKMLYADLEDFAIDVAKYYHERKNFQKASAYFLKVEQVRQLIQGGVSLYEIEV [chain 1 D194A] | 53.3 |

Variants of: B2
Experiment: thermal-shift assay (Sypro orange fluorescence)
Conditions: with PhrC [B. subtilis], printed Tm without peptide: mutant 50.1 °C, wild type 49.5 °C

| Variant | screen value [°C] |
| --- | --- |
| chain 1 MTGVISSSSIGEKINEWYMYIRRFSIPDAEYLRREIKQELDQMEEDQDLHLYYSLMEFRHNLMLEYLEPLEKMRIEEQPRLSDLLLEIDKKQARLTGLLEYYFNFFRGMYELDQREYLSAIKFFKKAESKLIFVKDRIEKAEFFFKMSESYYYMKQTYFSMDYARQAYEIYKEHEAYNIRLLQCHSLFATNFLDLKQYEDAISHFQKAYSMAEAEKQPQLMGRTLYAIGLCKNSQSQYEDAIPYFKRAIAVFEESNILPSLPQAYFLITQIHYKLGKIDKAHEYHSKGMAYSQKAGDVIYLSEFEFLKSLYLSGPDEEAIQGFFDFLESKMLYADLEDFAIDVAKYYHERKNFQKASAYFLKVEQVRQLIQGGVSLYEIEV [chain 1 N227A] | 49.2 |

Same assay, conditions: with PhrC [B. subtilis], printed Tm without peptide: mutant 51.3 °C, wild type 49.5 °C

| Variant | screen value [°C] |
| --- | --- |
| chain 1 MTGVISSSSIGEKINEWYMYIRRFSIPDAEYLRREIKQELDQMEEDQDLHLYYSLMEFRHNLMLEYLEPLEKMRIEEQPRLSDLLLEIDKKQARLTGLLEYYFNFFRGMYELDQREYLSAIKFFKKAESKLIFVKDRIEKAEFFFKMSESYYYMKQTYFSMDYARQAYEIYKEHEAYNIRLLQCHSLFATNFLDLKQYEDAISHFQKAYSMAEAEKQPQLMGRTLYNIGLCKNSQSQYEDAIPYFKRAIAVFEESNILPSLPQAYFLITQIHYKLGKIDKAHEYHSKGMAYSQKAGDVIYLSAFEFLKSLYLSGPDEEAIQGFFDFLESKMLYADLEDFAIDVAKYYHERKNFQKASAYFLKVEQVRQLIQGGVSLYEIEV [chain 1 E303A] | 53.8 |

Same assay, conditions: with PhrC [B. subtilis], printed Tm without peptide: mutant 53.4 °C, wild type 49.5 °C

| Variant | screen value [°C] |
| --- | --- |
| chain 1 MTGVISSSSIGEKINEWYMYIRRFSIPDAEYLRREIKQELDQMEEDQDLHLYYSLMEFRHNLMLEYLEPLEKMRIEEQPRLSDLLLEIDKKQARLTGLLEYYFNFFRGMYELDQREYLSAIKFFKKAESKLIFVKDRIEKAEFFFKMSESYYYMKQTYFSMDYARQAYEIYKEHEAYNIRLLQCHSLFATNFLALKQYEDAISHFQKAYSMAEAEKQPQLMGRTLYNIGLCKNSQSQYEDAIPYFKRAIAVFEESNILPSLPQAYFLITQIHYKLGKIDKAHEYHSKGMAYSQKAGDVIYLSEFEFLKSLYLSGPDEEAIQGFFDFLESKMLYADLEDFAIDVAKYYHERKNFQKASAYFLKVEQVRQLIQGGVSLYEIEV [chain 1 D194A] | 52.3 |

Reference: paper PMC3601957, “Structural Basis of Rap Phosphatase Inhibition by Phr Peptides” (PLoS Biology, 2013)
